One block for each binder: values may come before it.
Legend:
CD3 protein = assay: BLI (ForteBio), biotinylated CD3 protein on SA biosensors, antibody at 500 nM
Protocol: CD3 protein was first biotinylated using EZ-Link NHS-PEG12-Biotin, and the biotinylated protein was immobilized on SA biosensors. The biosensors were then equilibrated in 1× Kinetics Buffer, followed by incubation with the humanized bispecific antibody solution to allow binding. The concentration of the humanized bispecific antibody solution was 500 nM. Afterward, the biosensors were placed in 1× Kinetics Buffer for dissociation. Data were analyzed using Fortebio Data Analysis 8.0 software to calculate the affinity constant values.

[1] = molecular target: T1, CD26 on cells (786-0, OS-RC-2, UT16, NCI-H226 tumor cells; PBMCs) (human, UniProt P27487 1-766); assay: flow cytometry, PBMCs in a mixed system with 786-0 cells, antibody at 0.3 ug/mL
T1 construct: whole, on cells; The background says that CD26 commonly exists as a homodimer; also called CD26 target on tumor cells; CD26 on PBMCs
T1 sequence (P27487 whole entry): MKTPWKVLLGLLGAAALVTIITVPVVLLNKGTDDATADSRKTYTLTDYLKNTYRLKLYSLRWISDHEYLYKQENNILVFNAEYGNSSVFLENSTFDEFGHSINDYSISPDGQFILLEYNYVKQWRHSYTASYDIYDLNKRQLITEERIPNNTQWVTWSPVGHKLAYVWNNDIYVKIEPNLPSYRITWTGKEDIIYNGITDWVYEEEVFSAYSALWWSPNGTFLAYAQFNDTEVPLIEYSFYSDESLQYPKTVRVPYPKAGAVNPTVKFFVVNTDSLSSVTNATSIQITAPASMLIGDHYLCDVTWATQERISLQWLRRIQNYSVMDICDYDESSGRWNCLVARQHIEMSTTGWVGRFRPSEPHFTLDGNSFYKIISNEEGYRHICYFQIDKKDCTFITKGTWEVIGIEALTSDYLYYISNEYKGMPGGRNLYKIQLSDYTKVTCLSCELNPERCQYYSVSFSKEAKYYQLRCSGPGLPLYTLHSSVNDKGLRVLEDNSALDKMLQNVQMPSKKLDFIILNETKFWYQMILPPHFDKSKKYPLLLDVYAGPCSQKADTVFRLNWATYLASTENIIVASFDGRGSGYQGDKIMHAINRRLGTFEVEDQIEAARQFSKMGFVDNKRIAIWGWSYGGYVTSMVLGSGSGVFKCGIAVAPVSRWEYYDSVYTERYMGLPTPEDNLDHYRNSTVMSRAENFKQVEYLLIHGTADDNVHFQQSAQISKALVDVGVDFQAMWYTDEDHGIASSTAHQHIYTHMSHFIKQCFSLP

Kd (CD3 protein): 1.61 nM
koff (CD3 protein): 0.000137 s⁻¹
kon (CD3 protein): 84800 M⁻¹ s⁻¹
B1: humanized CD26-CD3 BiTE bispecific antibody 19G300 (bispecific antibody)
scFv: DIQMTQSPSSLSASPGDRVTISCRASQDIGNFLTWYQQKPGQAPKLLIYYRSRLHSGVPSRFSGSGSGTDYTLTISSLEPEDFATYYCQQDNTLPWTFGQGTKVEIKGGGGSGGGGSGGGGSEVQLVESGGGLVQPGGSLRLSCAASGFTFTNYYMSWVRQAPGKGLEWVAFIRDKANGYTTEYSASVKGRFTISRDNSKNTLYLQMNSLRAEDTAVYYCARVLRYLGYNFDYWGQGTLVTVSSGGGGSDVQLVQSGAEVKKPGASVKVSCKASGYTFTRYTMHWVRQAPGQGLEWIGYINPSRGYTNYADSVKGRFTITTDKSTSTAYMELSSLRSEDTATYYCARYYDDHYCLDYWGQGTTVTVSSGGGGSGGGGSGGGGSDIVLTQSPATLSLSPGERATLSCRASQSVSYMNWYQQKPGKAPKRWIYDTSKVASGVPARFSGSGSGTDYSLTINSLEAEDAATYYCQQWSSNPLTFGGGTKVEIK
notes: Single chain of about 55 kDa; also called humanized bispecific antibody 19G300

binding result [1]: binds
B2: full-length humanized anti-CD26 antibody 21G428-429 (antibody, human IgG1, kappa, V domains shown)
VH: EVQLVQSGAELVKPGASVKLSCAASGFNIKDTYIYWVRQAPGQGLEWVGRIEPMNGNTKYDPKFQGRFTMTANTSKNTAYLQLSSLRSEDTAVYYCSRGGWLLLYVMDYWGQGTLVTVSS
VL: DIVMTQSPSSLSVTPGERVSISCRSDKSLLHSNGNTYLYWFLQKPGQSPQVLIYRMSNLASGVPDRFSGSGSGTDFTLTISRVEAEDVGVYYCFQQLEYPYTFGQGTKLEIKR
notes: Derived from mouse antibody No. 62; About 150 kDa

Reference: patent US20260217852A1 (ZONHON BIOPHARMA INSTITUTE, published 2026)
